Source: paper PMC4634852

Target: Spindle-F (Spn-F) (UniProt Q9V9Y9)
Assay: anti-FLAG co-IP of differently tagged Spn-F
Conditions: reference: wild-type Spn-F with Ik2; sites S53,S85,S172,S202,S264,S270,S325,S349

- binding against the reference: stronger
Substance: Spindle-F (Spn-F) (from UniProt Q9V9Y9) SpnF-8A with Ik2
